Laboratory results as given in publication PMC8545111, “Molecular Basis of the Versatile Regulatory Mechanism of HtrA-Type Protease AlgW from Pseudomonas aeruginosa” (mBio, 2021).
Changes are numbered by the printed parent chain.

Experiments:
AlgW-V284A = target: T1, AlgW-V284A (Pseudomonas aeruginosa, UniProt Q9HVX1 30-389, V284A); experiment: cell-based or functional assay
T1 sequence: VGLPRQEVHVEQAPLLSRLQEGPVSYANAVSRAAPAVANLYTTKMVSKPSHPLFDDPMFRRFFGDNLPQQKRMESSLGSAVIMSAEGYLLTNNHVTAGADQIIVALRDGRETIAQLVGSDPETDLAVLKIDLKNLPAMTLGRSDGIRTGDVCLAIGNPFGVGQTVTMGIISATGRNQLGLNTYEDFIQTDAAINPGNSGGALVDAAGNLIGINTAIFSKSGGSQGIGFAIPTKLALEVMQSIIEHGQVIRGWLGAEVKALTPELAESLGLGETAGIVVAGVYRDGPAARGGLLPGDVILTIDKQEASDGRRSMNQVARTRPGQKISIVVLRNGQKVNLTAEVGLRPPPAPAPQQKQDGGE

AlgW-E285A = target: T2, AlgW-E285A (Pseudomonas aeruginosa, UniProt Q9HVX1 30-389, E285A); experiment: cell-based or functional assay
T2 sequence: T1 sequence with A255V, E256A

AlgW-E151A = target: T3, AlgW-E151A (Pseudomonas aeruginosa, UniProt Q9HVX1 30-389, E151A); experiment: cell-based or functional assay
T3 sequence: T1 sequence with E122A, A255V

[1] = target: T4, soluble AlgW (residues 30 to 389, without the N-terminal transmembrane segments) (Pseudomonas aeruginosa, UniProt Q9HVX1 30-389); experiment: cell-based or functional assay
T4 sequence: T1 sequence with A255V

AlgW-K287A = target: T5, AlgW-K287A (Pseudomonas aeruginosa, UniProt Q9HVX1 30-389, K287A); experiment: cell-based or functional assay
T5 sequence: T1 sequence with A255V, K258A

[2] = target: T6, AlgWS227A (inactive mutant of the periplasmic soluble domain of AlgW, for crystallization) (Pseudomonas aeruginosa, UniProt Q9HVX1 52-389, S227A); experiment: crystal structure; protein mixed with peptide activator (tripeptide WVF or decapeptide …) prior to crystallization; hanging-drop vapor diffusion at 18°C; molecular replacement; conditions: both partners purified
T6 construct: AlgW of Pseudomonas aeruginosa, residues 52-389 (construct for crystallization), catalytic serine S227 changed to alanine; source: E. coli BL21(DE3), purified (Ni-NTA, Superdex-75 SEC)
T6 sequence: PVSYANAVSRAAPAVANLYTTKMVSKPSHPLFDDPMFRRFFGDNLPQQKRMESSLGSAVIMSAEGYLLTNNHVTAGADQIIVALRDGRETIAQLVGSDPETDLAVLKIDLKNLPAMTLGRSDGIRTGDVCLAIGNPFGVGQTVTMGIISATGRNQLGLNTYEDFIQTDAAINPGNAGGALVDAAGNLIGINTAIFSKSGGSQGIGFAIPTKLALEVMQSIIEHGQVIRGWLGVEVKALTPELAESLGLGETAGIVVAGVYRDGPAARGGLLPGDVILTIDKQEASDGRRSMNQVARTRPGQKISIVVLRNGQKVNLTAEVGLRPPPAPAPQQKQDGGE

B1: decapeptide SVRDELRWVF (MucE C-terminal tail) (peptide)
peptide: SVRDELRWVF
notes: C-terminal decapeptide of the periplasmic protein MucE of Pseudomonas aeruginosa; also called C-terminal decapeptide of MucE
Q: What does the source list for B1?
A: half-maximal activation concentration of the peptide activator (cleavage of Abz-VLAG-pNA) (AlgW-V284A): 3.56 μM; maximal cleavage activity of peptide-activated AlgW (Abz-VLAG-pNA) (AlgW-V284A): 63.1 μM min^−1; half-maximal activation concentration of the peptide activator (cleavage of Abz-VLAG-pNA) (AlgW-E285A): 3.84 μM; maximal cleavage activity of peptide-activated AlgW (Abz-VLAG-pNA) (AlgW-E285A): 57.5 μM min^−1; half-maximal activation concentration of the peptide activator (cleavage of Abz-VLAG-pNA) (AlgW-E151A): 2.99 μM; half-maximal activation concentration of the peptide activator (cleavage of Abz-VLAG-pNA) [1]: 2.02 μM; maximal cleavage activity of peptide-activated AlgW (Abz-VLAG-pNA) [1]: 165 μM min^−1; half-maximal activation concentration of the peptide activator (cleavage of Abz-VLAG-pNA) (AlgW-K287A): 6.53 μM; maximal cleavage activity of peptide-activated AlgW (Abz-VLAG-pNA) (AlgW-K287A): 49.4 μM min^−1; binding result [2]: binds
